T1: EsCas13d, nuclease-dead (Eubacterium siraeum, UniProt B0MS50, R295A;H300A;R849A;H854A)
T1 sequence: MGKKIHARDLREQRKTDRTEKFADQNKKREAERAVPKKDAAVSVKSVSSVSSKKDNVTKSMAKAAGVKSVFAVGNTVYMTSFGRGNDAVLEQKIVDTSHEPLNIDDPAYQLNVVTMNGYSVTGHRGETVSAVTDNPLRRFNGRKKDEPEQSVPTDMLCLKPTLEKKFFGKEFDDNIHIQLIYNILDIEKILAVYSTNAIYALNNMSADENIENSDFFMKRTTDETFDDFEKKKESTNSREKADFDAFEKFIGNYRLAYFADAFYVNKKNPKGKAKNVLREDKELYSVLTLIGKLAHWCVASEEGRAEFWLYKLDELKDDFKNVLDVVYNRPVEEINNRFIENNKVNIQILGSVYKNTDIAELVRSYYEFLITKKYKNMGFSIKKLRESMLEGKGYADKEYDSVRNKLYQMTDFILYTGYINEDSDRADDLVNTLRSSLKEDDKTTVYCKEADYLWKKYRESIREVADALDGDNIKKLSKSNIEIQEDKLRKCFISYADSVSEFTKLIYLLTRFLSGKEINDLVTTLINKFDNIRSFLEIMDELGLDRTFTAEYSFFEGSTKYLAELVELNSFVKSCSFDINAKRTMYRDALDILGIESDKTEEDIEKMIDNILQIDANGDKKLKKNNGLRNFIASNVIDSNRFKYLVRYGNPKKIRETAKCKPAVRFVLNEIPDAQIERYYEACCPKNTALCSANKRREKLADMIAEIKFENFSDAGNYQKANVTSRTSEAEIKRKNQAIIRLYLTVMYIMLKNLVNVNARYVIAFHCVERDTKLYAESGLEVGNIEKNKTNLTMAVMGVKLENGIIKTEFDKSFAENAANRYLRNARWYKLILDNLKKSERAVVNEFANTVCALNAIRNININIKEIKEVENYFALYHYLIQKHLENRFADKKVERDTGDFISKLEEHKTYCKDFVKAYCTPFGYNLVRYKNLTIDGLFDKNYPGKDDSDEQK

B1: target 2 MT 5'PFS GGU 3'PFS AAC (mixed)
RNA 1: CACCCGUGCAAAAUUGCAGGGGUCUAAAACCUUCUCCAAAUUGUUUCAUCCU
RNA 2: GGGAAUGGAUCCACAUCUACGAAUUCGGUAGGAUGAAACAAUUUGGAGAAGAACAGAUCGGAAGAGCACACGU
B2: target 2 MT 5'PFS UAG 3'PFS UUU (mixed)
RNA 1: CACCCGUGCAAAAUUGCAGGGGUCUAAAACCUUCUCCAAAUUGUUUCAUCCU
RNA 2: GGGAAUGGAUCCACAUCUACGAAUUCUAGAGGAUGAAACAAUUUGGAGAAGUUUAGAUCGGAAGAGCACACGU
B3: target 2 MT 5'PFS GUA 3'PFS AGC (mixed)
RNA 1: CACCCGUGCAAAAUUGCAGGGGUCUAAAACCUUCUCCAAAUUGUUUCAUCCU
RNA 2: GGGAAUGGAUCCACAUCUACGAAUUCGUAAGGAUGAAACAAUUUGGAGAAGAGCAGAUCGGAAGAGCACACGU
B4: target 2 MT 5'PFS UCU 3'PFS CAG (mixed)
RNA 1: CACCCGUGCAAAAUUGCAGGGGUCUAAAACCUUCUCCAAAUUGUUUCAUCCU
RNA 2: GGGAAUGGAUCCACAUCUACGAAUUCUCUAGGAUGAAACAAUUUGGAGAAGCAGAGAUCGGAAGAGCACACGU
B5: target 2 MT 5'PFS CGG 3'PFS AGA (mixed)
RNA 1: CACCCGUGCAAAAUUGCAGGGGUCUAAAACCUUCUCCAAAUUGUUUCAUCCU
RNA 2: GGGAAUGGAUCCACAUCUACGAAUUCCGGAGGAUGAAACAAUUUGGAGAAGAGAAGAUCGGAAGAGCACACGU
B6: target 2 MT 5'PFS AGG 3'PFS AAU (mixed)
RNA 1: CACCCGUGCAAAAUUGCAGGGGUCUAAAACCUUCUCCAAAUUGUUUCAUCCU
RNA 2: GGGAAUGGAUCCACAUCUACGAAUUCAGGAGGAUGAAACAAUUUGGAGAAGAAUAGAUCGGAAGAGCACACGU
B7: target 2 MT 5'PFS CGG 3'PFS AGG (mixed)
RNA 1: CACCCGUGCAAAAUUGCAGGGGUCUAAAACCUUCUCCAAAUUGUUUCAUCCU
RNA 2: GGGAAUGGAUCCACAUCUACGAAUUCCGGAGGAUGAAACAAUUUGGAGAAGAGGAGAUCGGAAGAGCACACGU
B8: target 2 MT 5'PFS GUA 3'PFS AGG (mixed)
RNA 1: CACCCGUGCAAAAUUGCAGGGGUCUAAAACCUUCUCCAAAUUGUUUCAUCCU
RNA 2: GGGAAUGGAUCCACAUCUACGAAUUCGUAAGGAUGAAACAAUUUGGAGAAGAGGAGAUCGGAAGAGCACACGU
B9: target 2 MT 5'PFS CAC 3'PFS UCU (mixed)
RNA 1: CACCCGUGCAAAAUUGCAGGGGUCUAAAACCUUCUCCAAAUUGUUUCAUCCU
RNA 2: GGGAAUGGAUCCACAUCUACGAAUUCCACAGGAUGAAACAAUUUGGAGAAGUCUAGAUCGGAAGAGCACACGU
B10: target 2 MT 5'PFS CAC 3'PFS UCG (mixed)
RNA 1: CACCCGUGCAAAAUUGCAGGGGUCUAAAACCUUCUCCAAAUUGUUUCAUCCU
RNA 2: GGGAAUGGAUCCACAUCUACGAAUUCCACAGGAUGAAACAAUUUGGAGAAGUCGAGAUCGGAAGAGCACACGU
B11: target 2 MT 5'PFS UAG 3'PFS UCG (mixed)
RNA 1: CACCCGUGCAAAAUUGCAGGGGUCUAAAACCUUCUCCAAAUUGUUUCAUCCU
RNA 2: GGGAAUGGAUCCACAUCUACGAAUUCUAGAGGAUGAAACAAUUUGGAGAAGUCGAGAUCGGAAGAGCACACGU
B12: target 2 MT 5'PFS CGG 3'PFS AGC (mixed)
RNA 1: CACCCGUGCAAAAUUGCAGGGGUCUAAAACCUUCUCCAAAUUGUUUCAUCCU
RNA 2: GGGAAUGGAUCCACAUCUACGAAUUCCGGAGGAUGAAACAAUUUGGAGAAGAGCAGAUCGGAAGAGCACACGU
B13: target 2 MT 5'PFS CUC 3'PFS ACC (mixed)
RNA 1: CACCCGUGCAAAAUUGCAGGGGUCUAAAACCUUCUCCAAAUUGUUUCAUCCU
RNA 2: GGGAAUGGAUCCACAUCUACGAAUUCCUCAGGAUGAAACAAUUUGGAGAAGACCAGAUCGGAAGAGCACACGU
B14: target 2 MT 5'PFS AGG 3'PFS UAC (mixed)
RNA 1: CACCCGUGCAAAAUUGCAGGGGUCUAAAACCUUCUCCAAAUUGUUUCAUCCU
RNA 2: GGGAAUGGAUCCACAUCUACGAAUUCAGGAGGAUGAAACAAUUUGGAGAAGUACAGAUCGGAAGAGCACACGU
B15: target 2 MT 5'PFS CUC 3'PFS ACG (mixed)
RNA 1: CACCCGUGCAAAAUUGCAGGGGUCUAAAACCUUCUCCAAAUUGUUUCAUCCU
RNA 2: GGGAAUGGAUCCACAUCUACGAAUUCCUCAGGAUGAAACAAUUUGGAGAAGACGAGAUCGGAAGAGCACACGU
B16: target 2 MT 5'PFS CGC 3'PFS UAU (mixed)
RNA 1: CACCCGUGCAAAAUUGCAGGGGUCUAAAACCUUCUCCAAAUUGUUUCAUCCU
RNA 2: GGGAAUGGAUCCACAUCUACGAAUUCCGCAGGAUGAAACAAUUUGGAGAAGUAUAGAUCGGAAGAGCACACGU
B17: target 2 MT 5'PFS CAC 3'PFS UCA (mixed)
RNA 1: CACCCGUGCAAAAUUGCAGGGGUCUAAAACCUUCUCCAAAUUGUUUCAUCCU
RNA 2: GGGAAUGGAUCCACAUCUACGAAUUCCACAGGAUGAAACAAUUUGGAGAAGUCAAGAUCGGAAGAGCACACGU
B18: target 2 MT 5'PFS UCU 3'PFS CAA (mixed)
RNA 1: CACCCGUGCAAAAUUGCAGGGGUCUAAAACCUUCUCCAAAUUGUUUCAUCCU
RNA 2: GGGAAUGGAUCCACAUCUACGAAUUCUCUAGGAUGAAACAAUUUGGAGAAGCAAAGAUCGGAAGAGCACACGU
B19: target 2 MT 5'PFS UGG 3'PFS CCA (mixed)
RNA 1: CACCCGUGCAAAAUUGCAGGGGUCUAAAACCUUCUCCAAAUUGUUUCAUCCU
RNA 2: GGGAAUGGAUCCACAUCUACGAAUUCUGGAGGAUGAAACAAUUUGGAGAAGCCAAGAUCGGAAGAGCACACGU
B20: target 2 MT 5'PFS UGG 3'PFS CCU (mixed)
RNA 1: CACCCGUGCAAAAUUGCAGGGGUCUAAAACCUUCUCCAAAUUGUUUCAUCCU
RNA 2: GGGAAUGGAUCCACAUCUACGAAUUCUGGAGGAUGAAACAAUUUGGAGAAGCCUAGAUCGGAAGAGCACACGU
B21: target 2 MT 5'PFS AGG 3'PFS AAC (mixed)
RNA 1: CACCCGUGCAAAAUUGCAGGGGUCUAAAACCUUCUCCAAAUUGUUUCAUCCU
RNA 2: GGGAAUGGAUCCACAUCUACGAAUUCAGGAGGAUGAAACAAUUUGGAGAAGAACAGAUCGGAAGAGCACACGU
B22: target 2 MT 5'PFS GCU 3'PFS CUC (mixed)
RNA 1: CACCCGUGCAAAAUUGCAGGGGUCUAAAACCUUCUCCAAAUUGUUUCAUCCU
RNA 2: GGGAAUGGAUCCACAUCUACGAAUUCGCUAGGAUGAAACAAUUUGGAGAAGCUCAGAUCGGAAGAGCACACGU
B23: target 2 MT 5'PFS CAC 3'PFS UCC (mixed)
RNA 1: CACCCGUGCAAAAUUGCAGGGGUCUAAAACCUUCUCCAAAUUGUUUCAUCCU
RNA 2: GGGAAUGGAUCCACAUCUACGAAUUCCACAGGAUGAAACAAUUUGGAGAAGUCCAGAUCGGAAGAGCACACGU
B24: target 2 MT 5'PFS CUC 3'PFS ACA (mixed)
RNA 1: CACCCGUGCAAAAUUGCAGGGGUCUAAAACCUUCUCCAAAUUGUUUCAUCCU
RNA 2: GGGAAUGGAUCCACAUCUACGAAUUCCUCAGGAUGAAACAAUUUGGAGAAGACAAGAUCGGAAGAGCACACGU
B25: target 1 A20C,C22U (mixed)
RNA 1: CACCCGUGCAAAAAUGCAGGGGUCUAAAACUGAGCGGAUAACCUCUCUAUGG
RNA 2: GGGAAUGGAUCCACAUCUACGAAUUCGUAUCCUAGAGAGGUUAUCCGCUCACCGAGAUCGGAAGAGCACACGU
B26: target 1 insG 3' of 7,insG 3' of 2 (mixed)
RNA 1: CACCCGUGCAAAAAUGCAGGGGUCUAAAACUGAGCGGAUAACCUCUCUAUGG
RNA 2: GGGAAUGGAUCCACAUCUACGAAUUCGUACCAUAGAGAGGUUAUCGCGCUCGACCGAGAUCGGAAGAGCACACGU
B27: target 1 C6G,U19C (mixed)
RNA 1: CACCCGUGCAAAAAUGCAGGGGUCUAAAACUGAGCGGAUAACCUCUCUAUGG
RNA 2: GGGAAUGGAUCCACAUCUACGAAUUCGUACCACAGAGAGGUUAUCGGCUCACCGAGAUCGGAAGAGCACACGU

This data set has as its target T1, EsCas13d, nuclease-dead. The data set is described as follows: crRNA (strand 1, pre-loaded); Mg2+; 40 mM Tris-HCl pH 7.5, 150 mM NaCl, 6 mM MgCl2, 1 mM DTT, 0.1% Tween-20, 0.2 mg/ml BSA; 25 C; 10 min per concentration, then washed. As to conditions: tags: His6-TwinStrep-SUMO cleaved; N-terminal SNAP kept (SNAP-Surface 488); label: 3' end held by stalled T7 RNA polymerase.
As to B1, binding was put at a Kd of 13.4 ± 1.4 nM.

Turning to B2, the Kd (usually the concentration at which binding is half-saturated) was 6.5 ± 0.7 nM.

Consider B3, for which binding was put at a Kd of 6.4 ± 0.6 nM.

For the molecule B4, binding was put at a Kd of 7.6 ± 1.1 nM.

Molecule B5 registered a Kd of 4.1 ± 0.7 nM.

B6: the dissociation constant (Kd) was determined as 4.7 ± 0.9 nM.

With B7, the Kd was 4.5 ± 0.5 nM.

B8 showed a Kd of 8.6 ± 0.6 nM.

Consider B9, for which the Kd was found to be 4.7 ± 0.6 nM.

On to B10, for which binding was put at a Kd of 3.9 ± 0.8 nM.

B11 returned a Kd of 4.1 ± 0.5 nM.

The molecule B12 yielded a dissociation constant Kd of 4.7 ± 0.9 nM.

Molecule B13 showed a dissociation constant (Kd) of 2.3 ± 0.4 nM.

As for B14, the Kd came out at 7.3 ± 1.2 nM.

B15 registered a Kd of 1.68 ± 0.18 nM.

In turn, B16 returned a Kd of 3.7 ± 0.4 nM.

As for B17, the Kd came to 4.1 ± 0.6 nM.

In turn, B18 displayed a dissociation constant (Kd) of 10.5 ± 2.1 nM.

In turn, B19 yielded a Kd of 15.3 ± 3.1 nM.

Molecule B20 gave a Kd of 68 ± 33 nM.

For B21, the affinity, expressed as Kd, was 8.5 ± 1.7 nM. This Kd lies about 8-fold lower than the previous one.

B22 came in with a Kd of 24 ± 8 nM.

B23 returned a Kd of 4.9 ± 0.7 nM.

The molecule B24 yielded a dissociation constant Kd of 3.1 ± 1.4 nM.

Molecule B25 showed a Kd of 49 ± 6 nM.

On to B26, for which the Kd amounted to 6.9 ± 0.4 nM.

For B27, the dissociation constant (Kd) was 29.8 ± 2.8 nM.

The values are drawn from paper PMC10786891, “Massively parallel profiling of RNA-targeting CRISPR-Cas13d”.
